The labels stand for the following.
B1: TcdB2 (TcB) of the TcdB2-TccC3 cocoon (natural protein)
chain: MQNSQDFSITELSLPKGGGAITGMGEALTPTGPDGMAALSLPLPISAGRGYAPAFTLNYNSGAGNSPFGLGWDCNVMTIRRRTHFGVPHYDETDTFLGPEGEVLVVADQPRDESTLQGINLGATFTVTGYRSRLESHFSRLEYWQPKTTGKTDFWLIYSPDGQVHLLGKSPQARISNPSQTTQTAQWLLEASVSSRGEQIYYQYRAEDDTGCEADEITHHLQATAQRYLHIVYYGNRTASETLPGLDGSAPSQADWLFYLVFDYGERSNNLKTPPAFSTTGSWLCRQDRFSRYEYGFEIRTRRLCRQVLMYHHLQALDSKITEHNGPTLVSRLILNYDESAIASTLVFVRRVGHEQDGNVVTLPPLELAYQDFSPRHHAHWQPMDVLANFNAIQRWQLVDLKGEGLPGLLYQDKGAWWYRSAQRLGEIGSDAVTWEKMQPLSVIPSLQSNASLVDINGDGQLDWVITGPGLRGYHSQRPDGSWTRFTPLNALPVEYTHPRAQLADLMGAGLSDLVLIGPKSVRLYANTRDGFAKGKDVVQSGDITLPVPGADPRKLVAFSDVLGSGQAHLVEVSATKVTCWPNLGRGRFGQPITLPGFSQPATEFNPAQVYLADLDGSGPTDLIYVHTNRLDIFLNKSGNGFAEPVTLRFPEGLRFDHTCQLQMADVQGLGVASLILSVPHMSPHHWRCDLTNMKPWLLNEMNNNMGVHHTLRYRSSSQFWLDEKAAALTTGQTPVCYLPFPIHTLWQTETEDEISGNKLVTTLRYARGAWDGREREFRGFGYVEQTDSHQLAQGNAPERTPPALTKNWYATGLPVIDNALSTEYWRDDQAFAGFSPRFTTWQDNKDVPLTPEDDNSRYWFNRALKGQLLRSELYGLDDSTNKHVPYTVTEFRSQVRRLQHTDSRYPVLWSSVVESRNYHYERIASDPQCSQNITLSSDRFGQPLKQLSVQYPRRQQPAINLYPDTLPDKLLANSYDDQQRQLRLTYQQSSWHHLTNNTVRVLGLPDSTRSDIFTYGAENVPAGGLNLELLSDKNSLIADDKPREYLGQQKTAYTDGQNTTPLQTPTRQALIAFTETTVFNQSTLSAFNGSIPSDKLSTTLEQAGYQQTNYLFPRTGEDKVWVAHHGYTDYGTAAQFWRPQKQSNTQLTGKITLIWDANYCVVVQTRDAAGLTTSAKYDWRFLTPVQLTDINDNQHLITLDALGRPITLRFWGTENGKMTGYSSPEKASFSPPSDVNAAIELKKPLPVAQCQVYAPESWMPVLSQKTFNRLAEQDWQKLYNARIITEDGRICTLAYRRWVQSQKAIPQLISLLNNGPRLPPHSLTLTTDRYDHDPEQQIRQQVVFSDGFGRLLQAAARHEAGMARQRNEDGSLIINVQHTENRWAVTGRTEYDNKGQPIRTYQPYFLNDWRYVSNDSARQEKEAYADTHVYDPIGREIKVITAKGWFRRTLFTPWFTVNEDENDTAAEVKKVKM

The target in assay [1] is Photorhabdus luminescens TcdA1 (TcA) (Photorhabdus luminescens, UniProt Q9RN43 1-2516). Description: cryo-EM structure. To be noted: both partners purified.
Assay [2] concerns the target B1. Description: crystal structure. The note with it: both partners purified.

B1: the binding result in assay [1] was “binds”.

B2: TccC3 (TcC) of the TcdB2-TccC3 cocoon, without the HVR (domain or fragment)
chain: MKNIDPKLYQKTPTVSVYDNRGLIIRNIDFHRTTANGDPDTRITRHQYDIHGHLNQSIDPRLYEAKQTNNTIKPNFLWQYDLTGNPLCTESIDAGRTVTLNDIEGRPLLTVTATGVIQTRQYETSSLPGRLLSVAEQTPEEKTSRITERLIWAGNTEAEKDHNLAGQCVRHYDTAGVTRLESLSLTGTVLSQSSQLLIDTQEANWTGDNETVWQNMLADDIYTTLSTFDATGALLTQTDAKGNIQRLAYDVAGQLNGSWLTLKGQTEQVIIKSLTYSAAGQKLREEHGNDVITEYSYEPETQRLIGIKTRRPSDTKVLQDLRYEYDPVGNVISIRNDAEATRFWHNQKVMPENTYTYDSLYQLISATGREMANIGQQSHQFPSPALPSDNNTYTNYTRTYTYDRGGNLTKIQHSSPATQNNYTTNITVSNRSNRAVLSTLTEDPAQVDALFDAGGHQNTLISGQNLNWNTRGELQQVTLVKRDKGANDDREWYRYSGDGRRMLKINEQQASNNAQTQRVTYLPNLELRLTQNSTATTEDLQVITVGEAGRAQVRVLHWESGKPEDIDNNQLRYSYDNLIGSSQLELDSEGQIISEEEYYPYGGTALWAARNQTEASYKTIRYSGKERDATGLYYYGYRYYQPWIGRWLSSDPAGTIDGLNLYRMVRNNPVTLLDPDGL
Take B2: in assay [2], the binding result is “binds”.

Values taken from paper PMC6868009 (Nature Communications, 2019).
